These binders were tested against SNARE complex in cells of a human neuroblastoma cell line (human, UniProt P60880 1-206) (assay: cell-based or functional assay).
Sequence of SNARE complex in cells of a human neuroblastoma cell line (P60880 whole entry, one chain of several): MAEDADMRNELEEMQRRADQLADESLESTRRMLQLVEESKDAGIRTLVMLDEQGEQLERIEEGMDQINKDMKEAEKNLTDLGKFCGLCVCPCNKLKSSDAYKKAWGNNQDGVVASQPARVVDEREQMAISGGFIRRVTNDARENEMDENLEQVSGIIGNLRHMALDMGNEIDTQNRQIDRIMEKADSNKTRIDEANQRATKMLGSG

Row | Binder | % RELEASED NO… (Average), dose 1 µM [%] | % RELEASED NO… (Average), dose 10 µM [%] | % RELEASED NO… (Average), dose 100 µM [%] | % RELEASED NO… (Average), dose 500 µM [%] | % RELEASED NO… (Average), dose 1000 µM [%]
1 | Ac-EDLKRWM-NH2 [Ac-SEQ ID NO:14-NH2] | – | 85 | 86 | – | 45.8
2 | Ac-EHLKQWM-NH2 [Ac-SEQ ID NO:1-NH2] | 96.1 | 93.1 | 79.6 | 49.1 | 42.5

The next lines start with the values.

Row | % RELEASED NO… (Average), dose 1 µM [%] | % RELEASED NO… (Average), dose 10 µM [%] | % RELEASED NO… (Average), dose 100 µM [%] | % RELEASED NO… (Average), dose 500 µM [%] | % RELEASED NO… (Average), dose 1000 µM [%] | Binder
3 | 90.6 | 97.1 | 89 | 78.1 | 67.9 | Ac-DHFQQRM-NH2 [Ac-SEQ ID NO:24-NH2]
4 | 99.6 | 94.5 | 74.8 | 48.1 | 41 | Ac-DHFLDWM-NH2 [Ac-SEQ ID NO:25-NH2]

— patent EP2649983A1 (Lipotec, S.A., dated 2013)
